Tests used:
Test in all cases: purified protein
Cc1ccc([S@+](C)[O-])cc1 = conditions: 20 uM rTrx, 5 uM rTrxR, 0.2 mM NADPH, 50 mM sodium phosphate pH 7.5, 37 °C, MsrA domain
Cc1ccc([S+](C)[O-])cc1 = conditions: 20 uM rTrx, 5 uM rTrxR, 0.2 mM NADPH, 50 mM sodium phosphate pH 7.5, 37 °C, racemate, both domains
Cc1ccc([S@@+](C)[O-])cc1 = conditions: 20 uM rTrx, 5 uM rTrxR, 0.2 mM NADPH, 50 mM sodium phosphate pH 7.5, 37 °C, MsrB domain

With rMsrAB (Haemophilus influenzae Rd KW20) as the substance, how does the Km (Cc1ccc([S@+](C)[O-])cc1) read?
The Km was 3620 ± 550 µM.

What about the Vmax (Cc1ccc([S@+](C)[O-])cc1) of the same substance?
The Vmax was 0.52 µmol/min/mg.

And the kcat (Cc1ccc([S@+](C)[O-])cc1)?
The kcat was 0.312 ± 0.12 s⁻¹.

And the kcat/Km (Cc1ccc([S@+](C)[O-])cc1)?
Its kcat/Km is 86.1 M⁻¹ s⁻¹.

What about the Km (Cc1ccc([S+](C)[O-])cc1) of the same substance?
The Km was 2960 ± 440 µM.

What about the Vmax (Cc1ccc([S+](C)[O-])cc1) of the same substance?
The Vmax was 0.34 µmol/min/mg.

What about the kcat (Cc1ccc([S+](C)[O-])cc1) of the same substance?
Its kcat is 0.204 ± 0.06 s⁻¹.

And the kcat/Km (Cc1ccc([S+](C)[O-])cc1)?
The kcat/Km was 68.9 M⁻¹ s⁻¹.

What about the Km (Cc1ccc([S@@+](C)[O-])cc1) of the same substance?
The Km was 2310 ± 350 µM.

And the Vmax (Cc1ccc([S@@+](C)[O-])cc1)?
The Vmax was 0.26 µmol/min/mg.

What about the kcat (Cc1ccc([S@@+](C)[O-])cc1) of the same substance?
Its kcat is 0.156 ± 0.06 s⁻¹.

And the kcat/Km (Cc1ccc([S@@+](C)[O-])cc1)?
The kcat/Km was 67.5 M⁻¹ s⁻¹.

— publication PMC9404787, “The Peptide Methionine Sulfoxide Reductase (MsrAB) of Haemophilus influenzae Repairs Oxidatively Damaged Outer Membrane and Periplasmic Proteins Involved in Nutrient Acquisition and Virulence” (Antioxidants, 2022)
